# Laboratory results published in patent publication US20200079833A1 (AstraZeneca / MedImmune, published 2020).
# Starred links: 1 amine or outer side, 2 acyl side, 3 side chain; linkers in the order of their positions; H or OH if unused. Non-standard residues stand in square brackets, D forms with d. Groups on a side chain read outwards from the residue. Primed or numbered codes have the meaning given here. No end group written: not given here. *: point of attachment. γGlu = O=C(O)[C@H](CCC(=O)[*:2])N[*:1]; Stearoyl = CCCCCCCCCCCCCCCCCC(=O)*; Palmitoyl = CCCCCCCCCCCCCCCC(=O)*; αMeF = C[C@](N)(Cc1ccccc1)C(=O)O; αMeK = C[C@](N)(CCCCN)C(=O)O; Lauroyl = CCCCCCCCCCCC(=O)*; αMeS = C[C@](N)(CO)C(=O)O; PEG2′ = not defined here; Aib = CC(C)(N)C(=O)O; Ahx = NCCCCCC(=O)O
# T1: glucose-dependent insulinotropic peptide (gastric inhibitory polypeptide) receptor (GIPR) (human, UniProt P48546 22-466)
# T1 sequence (looked up): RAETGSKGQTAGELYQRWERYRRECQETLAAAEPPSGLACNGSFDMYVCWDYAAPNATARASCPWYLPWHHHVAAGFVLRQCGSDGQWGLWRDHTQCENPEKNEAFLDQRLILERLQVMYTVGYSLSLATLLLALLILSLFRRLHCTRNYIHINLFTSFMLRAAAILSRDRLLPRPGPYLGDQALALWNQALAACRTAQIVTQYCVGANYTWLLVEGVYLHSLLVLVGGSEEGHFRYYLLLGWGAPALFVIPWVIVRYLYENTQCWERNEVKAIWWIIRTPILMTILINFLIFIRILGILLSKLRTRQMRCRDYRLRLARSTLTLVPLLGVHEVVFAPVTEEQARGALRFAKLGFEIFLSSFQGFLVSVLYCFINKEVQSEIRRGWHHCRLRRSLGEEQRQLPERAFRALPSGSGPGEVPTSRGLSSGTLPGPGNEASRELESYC
# T2: glucose-dependent insulinotropic peptide (gastric inhibitory polypeptide) receptor (GIPR), primary cAMP assay (human, UniProt P48546 22-466)
# T2 sequence (looked up): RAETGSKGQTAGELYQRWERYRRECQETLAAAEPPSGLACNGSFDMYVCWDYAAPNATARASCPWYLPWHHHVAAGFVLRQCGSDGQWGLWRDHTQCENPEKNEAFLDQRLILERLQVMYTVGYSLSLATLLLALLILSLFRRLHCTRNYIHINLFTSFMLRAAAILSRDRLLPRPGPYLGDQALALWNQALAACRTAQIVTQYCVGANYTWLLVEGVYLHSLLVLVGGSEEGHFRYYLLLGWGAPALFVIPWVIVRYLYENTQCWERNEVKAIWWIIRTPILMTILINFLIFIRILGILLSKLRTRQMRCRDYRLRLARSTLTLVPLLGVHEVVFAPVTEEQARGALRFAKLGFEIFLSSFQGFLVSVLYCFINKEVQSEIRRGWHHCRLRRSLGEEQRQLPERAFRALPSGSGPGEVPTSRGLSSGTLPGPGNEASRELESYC
# Experiments:
# Assay in all cases: cell-based or functional assay
# [1] = biological target: GLP-1 receptor (GLP-1R) (human, UniProt P43220 24-463)
# [2] = biological target: glucagon receptor (GCGR) (human, UniProt P47871 26-477)
# Sequence of glucagon receptor (GCGR) (P47871 26-477): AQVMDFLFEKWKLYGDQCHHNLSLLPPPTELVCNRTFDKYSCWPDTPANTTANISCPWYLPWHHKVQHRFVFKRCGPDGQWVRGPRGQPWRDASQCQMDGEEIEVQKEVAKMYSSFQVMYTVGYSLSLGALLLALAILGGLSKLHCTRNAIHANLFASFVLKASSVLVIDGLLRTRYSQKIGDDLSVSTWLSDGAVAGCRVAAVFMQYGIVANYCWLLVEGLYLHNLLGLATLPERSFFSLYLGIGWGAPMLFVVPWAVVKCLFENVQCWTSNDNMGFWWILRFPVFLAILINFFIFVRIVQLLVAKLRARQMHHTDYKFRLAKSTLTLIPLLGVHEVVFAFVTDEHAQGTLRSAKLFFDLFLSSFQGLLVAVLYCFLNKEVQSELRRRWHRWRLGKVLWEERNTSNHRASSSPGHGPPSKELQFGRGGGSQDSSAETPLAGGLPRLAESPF
# [3] = biological target: T1, glucose-dependent insulinotropic …
# [4] = biological target: T2, glucose-dependent insulinotropic …
# [5] = biological target: GLP-1 receptor (GLP-1R), primary cAMP assay (human, UniProt P43220 24-463)
# [6] = biological target: glucagon receptor (GCGR), primary cAMP assay (human, UniProt P47871 26-477)
# Sequence of glucagon receptor (GCGR), primary cAMP assay (P47871 26-477): as above
Binder,"Primary assay EC50 (cAMP), GLP-1R n1 [1] [nM]","Primary assay EC50 (cAMP), GLP-1R n2 [1] [nM]","Primary assay EC50 (cAMP), Mean pM GLP-1R [1] [pM]","Primary assay EC50 (cAMP), Gluc-R, first run [2] [nM]","Primary assay EC50 (cAMP), Gluc-R, second run [2] [nM]","Primary assay EC50 (cAMP), GIP-R, first run [3] [nM]","Primary assay EC50 (cAMP), GIP-R, second run [3] [nM]","Primary assay EC50 (cAMP), n1 [4] [nM]","Primary assay EC50 (cAMP), n2 [4] [nM]",Primary assay EC50 (cAMP) Mean [5] [nM],"Primary assay EC50 (cAMP), n1 [5] [nM]","Primary assay EC50 (cAMP), n2 [5] [nM]","Primary assay EC50 (cAMP), n1 [6] [nM]","Primary assay EC50 (cAMP), n2 [6] [nM]"
H[Aib]EGS[αMeF]TSDV[αMeS]S[αMeF]LEGEAA[αMeK]E[αMeF]IA[αMeF]VVK([Ahx-Ahx-Ahx-Stearoyl])GG-NH2 (N-terminus assumed; SMILES CCCCCCCCCCCCCCCCCC(=O)NCCCCCC(=O)NCCCCCC(=O)NCCCCCC(=O)NCCCC[C@H](NC(=O)[C@@H](NC(=O)[C@@H](NC(=O)[C@](C)(Cc1ccccc1)NC(=O)[C@H](C)NC(=O)[C@@H](NC(=O)[C@](C)(Cc1ccccc1)NC(=O)[C@H](CCC(=O)O)NC(=O)[C@](C)(CCCCN)NC(=O)[C@H](C)NC(=O)[C@H](C)NC(=O)[C@H](CCC(=O)O)NC(=O)CNC(=O)[C@H](CCC(=O)O)NC(=O)[C@H](CC(C)C)NC(=O)[C@](C)(Cc1ccccc1)NC(=O)[C@H](CO)NC(=O)[C@](C)(CO)NC(=O)[C@@H](NC(=O)[C@H](CC(=O)O)NC(=O)[C@H](CO)NC(=O)[C@@H](NC(=O)[C@](C)(Cc1ccccc1)NC(=O)[C@H](CO)NC(=O)CNC(=O)[C@H](CCC(=O)O)NC(=O)C(C)(C)NC(=O)[C@@H](N)Cc1c[nH]cn1)[C@@H](C)O)C(C)C)[C@@H](C)CC)C(C)C)C(C)C)C(=O)NCC(=O)NCC(N)=O) [SEQ ID NO 196],0.19,0.063,125,26,26,26,26,,,,,,,
H[Aib]EGS[αMeF]TSDV[αMeS]S[αMeF]LEGEAA[αMeK]E[αMeF]IA[αMeF]VVK([PEG2′-Stearoyl])GG-NH2 [SEQ ID NO 197],0.12,0.034,79,27,27,27,27,,,,,,,
H[Aib]EGS[αMeF]TSDV[αMeS]S[αMeF]LEGEAA[αMeK]E[αMeF]IA[αMeF]VVK([PEG2′-PEG2′-Stearoyl])GG-NH2 [SEQ ID NO 198],0.041,0.015,27.9,26,26,26,26,,,,,,,
H[Aib]EGS[αMeF]TSDV[αMeS]S[αMeF]LEGEAA[αMeK]E[αMeF]IA[αMeF]VVK([PEG2′-PEG2′-PEG2′-Stearoyl])GG-NH2 [SEQ ID NO 199],0.029,0.0075,18.3,25,25,25,25,,,,,,,
H[Aib]EGTFTSDVSK([PEG2′-PEG2′-γGlu-Palmitoyl])YLEGEAAEEFIK([PEG2′-PEG2′-γGlu-Palmitoyl])WVVEGG-NH2 [SEQ ID NO: 242],,,,,,,,21.4,21.4,3.85,3.58,4.11,21.4,21.4
H[Aib]EGTFTSDVSK([PEG2′-PEG2′-γGlu-Palmitoyl])FLEGEAAEEFIK([PEG2′-PEG2′-γGlu-Palmitoyl])WVVEGG-NH2 [SEQ ID NO: 243],,,,,,,,21.5,21.5,3.21,2.93,3.48,21.5,21.5
H[Aib]EGTFTSDVSK([PEG2′-PEG2′-γGlu-Palmitoyl])YLEGEAAEEFIK([PEG2′-PEG2′-γGlu-Palmitoyl])FVVEGG-NH2 [SEQ ID NO: 244],,,,,,,,21.6,21.6,12.3,7.77,16.9,21.6,21.6
H[Aib]EGTFTSDVSK([PEG2′-PEG2′-γGlu-Palmitoyl])FLEGEAAEEFIK([PEG2′-PEG2′-γGlu-Palmitoyl])FVVEGG-NH2 [SEQ ID NO: 245],,,,,,,,21.6,21.6,11.2,12.3,10.2,21.6,21.6
H[Aib]EGS[αMeF]TSDVSK([PEG2′-PEG2′-γGlu-Palmitoyl])YLEGEAA[αMeK]EFIAK([PEG2′-PEG2′-γGlu-Palmitoyl])VVEGG-NH2 [SEQ ID NO: 254],,,,,,,,21.9,21.9,0.205,0.223,0.186,21.9,21.9
H[Aib]EGS[αMeF]TSDVSK([PEG2′-PEG2′-γGlu-Palmitoyl])YLEGEAA[αMeK]EFIAWK([PEG2′-PEG2′-γGlu-Palmitoyl])VEGG-NH2 [SEQ ID NO: 255],,,,,,,,21.5,21.5,0.463,0.532,0.393,21.5,21.5
H[Aib]EGS[αMeF]TSDK([PEG2′-PEG2′-γGlu-Lauroyl])SSYLEGEAA[αMeK]EFIAWK([PEG2′-PEG2′-γGlu-Lauroyl])VEGG-NH2 [SEQ ID NO: 258],,,,,,,,22.3,22.3,0.0923,0.0596,0.125,22.3,22.3
H[Aib]EGS[αMeF]TSDK([PEG2′-PEG2′-γGlu-Palmitoyl])SSYLEGEAA[αMeK]EFIK([PEG2′-PEG2′-γGlu-Palmitoyl])WVVEGG-NH2 [SEQ ID NO: 259],,,,,,,,21.4,21.4,0.313,0.339,0.287,21.4,21.4
H[Aib]EGS[αMeF]TSDK([PEG2′-PEG2′-γGlu-Palmitoyl])SSYLEGEAA[αMeK]EFIAK([PEG2′-PEG2′-γGlu-Palmitoyl])VVEGG-NH2 [SEQ ID NO: 260],,,,,,,,21.9,21.9,0.389,0.334,0.443,21.9,21.9
H[Aib]EGS[αMeF]TSDK([PEG2′-PEG2′-γGlu-Palmitoyl])SSYLEGEAA[αMeK]EFIAWK([PEG2′-PEG2′-γGlu-Palmitoyl])VEGG-NH2 [SEQ ID NO: 261],,,,,,,,23,23,0.418,0.414,0.422,23,23
H[Aib]EGS[αMeF]TSDV[αMeS]SK([PEG2′-PEG2′-γGlu-Palmitoyl])LEGEAA[αMeK]EFIAK([PEG2′-PEG2′-γGlu-Palmitoyl])VVEGG-NH2 [SEQ ID NO: 266],,,,,,,,22.2,22.2,0.479,0.4,0.557,22.2,22.2
H[Aib]EGS[αMeF]TSDV[αMeS]SK([PEG2′-PEG2′-γGlu-Palmitoyl])LEGEAA[αMeK]EFIAWK([PEG2′-PEG2′-γGlu-Palmitoyl])VEGG-NH2 [SEQ ID NO: 267],,,,,,,,21.7,21.7,0.569,0.628,0.51,21.7,21.7
